From the supplement of paper PMC9112550, “Optimization of the antimicrobial peptide Bac7 by deep mutational scanning” (BMC Biology, 2022)

System: Escherichia coli TOP10
Assay: shrunken log2 fold change of peptide-encoding DNA abundance (4.5 h post-induction vs induction); higher = less antimicrobial activity (less host growth inhibition)
Conditions: time post-induction: 4.5 h; library: site-saturation at positions 5, 18, 19, 20
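Note: peptides expressed intracellularly from a pBAD plasmid library in pooled LB shake-flask culture, induced with 0.3% L-arabinose, DNA abundance read by NGS, three biological replicates, DESeq2 with apeglm shrinkage.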

Sequence | shrunken log2 fold change
RRIRKRPPRLPRPRPRPHKSPRP | 0.0371
RRIRKRPPRLPRPRPRPHFPPRP | 0.179
RRIRFRPPRLPRPRPRPTAKPRP | 0.444
RRIRHRPPRLPRPRPRPDGWPRP | 0.191
RRIRYRPPRLPRPRPRPCIKPRP | 1.75
RRIRLRPPRLPRPRPRPWINPRP | -0.43
RRIRGRPPRLPRPRPRPVHGPRP | -0.244
RRIRPRPPRLPRPRPRPVKIPRP | 0.154
RRIRWRPPRLPRPRPRPVFAPRP | 0.394
RRIRDRPPRLPRPRPRPPSYPRP | -0.222
RRIRKRPPRLPRPRPRPWTHPRP | 0.0375
RRIRMRPPRLPRPRPRPFDFPRP | 0.0495
RRIRSRPPRLPRPRPRPKCTPRP | -0.0418
RRIRGRPPRLPRPRPRPWHHPRP | -0.26
RRIRNRPPRLPRPRPRPPPYPRP | 0.534
RRIRDRPPRLPRPRPRPRSFPRP | 0.429
RRIRSRPPRLPRPRPRPEECPRP | 0.251
RRIRWRPPRLPRPRPRPVDGPRP | 0.0816
RRIRMRPPRLPRPRPRPFLHPRP | -0.0137
RRIRNRPPRLPRPRPRPGPCPRP | -0.0814
RRIRARPPRLPRPRPRPAWAPRP | 0.48
RRIRSRPPRLPRPRPRPIFKPRP | -0.186
RRIRNRPPRLPRPRPRPYQRPRP | -0.0199
RRIRNRPPRLPRPRPRPAKFPRP | -0.179
RRIRNRPPRLPRPRPRPMYWPRP | -0.000123

Sequence | shrunken log2 fold change
RRIRTRPPRLPRPRPRPVNIPRP | -0.136
RRIRWRPPRLPRPRPRPNPCPRP | -0.0647
RRIRRRPPRLPRPRPRPCIWPRP | 0.0382
RRIRDRPPRLPRPRPRPDFWPRP | 0.596
RRIRMRPPRLPRPRPRPCMFPRP | -0.038
RRIRFRPPRLPRPRPRPNGQPRP | -0.0712
RRIRCRPPRLPRPRPRPQWDPRP | -0.0642
RRIRVRPPRLPRPRPRPVGLPRP | 0.216
RRIRQRPPRLPRPRPRPCVVPRP | 0.0959
RRIRQRPPRLPRPRPRPLKEPRP | -0.0182
RRIRARPPRLPRPRPRPHIPPRP | -0.671
RRIRVRPPRLPRPRPRPGEWPRP | -0.00804
RRIRLRPPRLPRPRPRPKINPRP | -0.396
RRIRRRPPRLPRPRPRPSGHPRP | 0.161
RRIRPRPPRLPRPRPRPATTPRP | 0.0694
RRIRYRPPRLPRPRPRPVVCPRP | -0.408
RRIRMRPPRLPRPRPRPRYQPRP | -0.0321
RRIRTRPPRLPRPRPRPWCTPRP | -0.275
RRIRNRPPRLPRPRPRPFKSPRP | -0.014
RRIRIRPPRLPRPRPRPACPPRP | -0.146
RRIRMRPPRLPRPRPRPSKVPRP | 0.167
RRIRERPPRLPRPRPRPNCRPRP | -0.238
RRIRPRPPRLPRPRPRPDNQPRP | -0.357
RRIRKRPPRLPRPRPRPIDCPRP | 0.0653
RRIRKRPPRLPRPRPRPNQRPRP | -0.192

Sequence | shrunken log2 fold change
RRIRWRPPRLPRPRPRPAWAPRP | 0.579
RRIRCRPPRLPRPRPRPIFDPRP | -0.191
RRIRYRPPRLPRPRPRPRDMPRP | -0.339
RRIRGRPPRLPRPRPRPTQWPRP | 0.387
RRIRPRPPRLPRPRPRPQVNPRP | -0.279
RRIRARPPRLPRPRPRPHMWPRP | -0.000358
RRIRPRPPRLPRPRPRPMFSPRP | -0.295
RRIRKRPPRLPRPRPRPAWLPRP | 0.564
RRIRQRPPRLPRPRPRPIYQPRP | -0.647
RRIRFRPPRLPRPRPRPYNKPRP | -0.955
RRIRDRPPRLPRPRPRPWTGPRP | -0.118
RRIRSRPPRLPRPRPRPWHCPRP | -0.403
RRIRHRPPRLPRPRPRPNPPPRP | 0.0899
RRIRCRPPRLPRPRPRPYQSPRP | -0.307
RRIRNRPPRLPRPRPRPQCTPRP | -0.123
RRIRHRPPRLPRPRPRPDFIPRP | -0.391
RRIRLRPPRLPRPRPRPPPVPRP | 0.98
RRIRMRPPRLPRPRPRPMGFPRP | -0.0135
RRIRNRPPRLPRPRPRPELPPRP | -0.098
RRIRWRPPRLPRPRPRPVFDPRP | 0.138
RRIRMRPPRLPRPRPRPTFDPRP | 0.558
RRIRVRPPRLPRPRPRPWFTPRP | 0.0469
RRIRVRPPRLPRPRPRPGCVPRP | 0.267
RRIRSRPPRLPRPRPRPLMSPRP | -0.0126
RRIRSRPPRLPRPRPRPNCWPRP | 0.292

Sequence | shrunken log2 fold change
RRIRARPPRLPRPRPRPNYIPRP | -0.414
RRIRMRPPRLPRPRPRPSFGPRP | 0.0121
RRIRPRPPRLPRPRPRPEHWPRP | 0.226
RRIRHRPPRLPRPRPRPKKMPRP | -0.132
RRIRVRPPRLPRPRPRPNMWPRP | -0.327
RRIRKRPPRLPRPRPRPWVWPRP | 0.445
RRIRYRPPRLPRPRPRPKEKPRP | -0.0829
RRIRDRPPRLPRPRPRPNIHPRP | -0.214
RRIRGRPPRLPRPRPRPFYPPRP | -0.62
RRIRNRPPRLPRPRPRPSSTPRP | -0.201
RRIRDRPPRLPRPRPRPKNFPRP | -0.174
RRIRKRPPRLPRPRPRPHFVPRP | 0.347
RRIRCRPPRLPRPRPRPGSDPRP | -0.0369
RRIRGRPPRLPRPRPRPYFPPRP | -0.37
RRIRQRPPRLPRPRPRPSVFPRP | -0.143
RRIRHRPPRLPRPRPRPLWQPRP | -0.145
RRIRHRPPRLPRPRPRPYHFPRP | -0.686
RRIRCRPPRLPRPRPRPCVAPRP | 0.178
RRIRLRPPRLPRPRPRPYTNPRP | -0.6
RRIRTRPPRLPRPRPRPFCYPRP | -0.24
RRIRTRPPRLPRPRPRPILGPRP | 0.0438
RRIRSRPPRLPRPRPRPQEYPRP | -0.257
RRIRDRPPRLPRPRPRPFIDPRP | 0.168
RRIRPRPPRLPRPRPRPNNWPRP | -0.173
RRIRTRPPRLPRPRPRPPWFPRP | 0.0438

Sequence | shrunken log2 fold change
RRIRCRPPRLPRPRPRPKAQPRP | 0.262
RRIRFRPPRLPRPRPRPAYFPRP | -0.108
RRIRFRPPRLPRPRPRPGHRPRP | 0.0983
RRIRMRPPRLPRPRPRPVKLPRP | -0.0873
RRIRLRPPRLPRPRPRPAWMPRP | -0.0208
RRIRGRPPRLPRPRPRPGKFPRP | 0.427
RRIRTRPPRLPRPRPRPSFGPRP | 0.129
RRIRERPPRLPRPRPRPNHRPRP | -0.101
RRIRCRPPRLPRPRPRPNLPPRP | 0.649
RRIRRRPPRLPRPRPRPWMNPRP | -0.0882
RRIRYRPPRLPRPRPRPVYIPRP | -1.27
RRIRQRPPRLPRPRPRPNQVPRP | -0.0722
RRIRQRPPRLPRPRPRPKMHPRP | 0.127
RRIRGRPPRLPRPRPRPGKQPRP | 0.0206
RRIRTRPPRLPRPRPRPWDEPRP | -0.167
RRIRARPPRLPRPRPRPNCWPRP | 0.563
RRIRYRPPRLPRPRPRPPIYPRP | -0.676
RRIRMRPPRLPRPRPRPGSGPRP | 1.34
RRIRARPPRLPRPRPRPTEDPRP | 0.269
RRIRFRPPRLPRPRPRPTCVPRP | -0.0732
RRIRYRPPRLPRPRPRPPERPRP | 0.251
RRIRHRPPRLPRPRPRPLQHPRP | 0.0675
RRIRNRPPRLPRPRPRPQWGPRP | -0.0138
RRIRFRPPRLPRPRPRPDDVPRP | -0.0133
RRIRRRPPRLPRPRPRPNKTPRP | -0.00203
